Measurements taken from patent US20050272633.

Target: T1, IL-2 receptor common gamma chain (cγc), full length (1-369), P31785
T1 chain: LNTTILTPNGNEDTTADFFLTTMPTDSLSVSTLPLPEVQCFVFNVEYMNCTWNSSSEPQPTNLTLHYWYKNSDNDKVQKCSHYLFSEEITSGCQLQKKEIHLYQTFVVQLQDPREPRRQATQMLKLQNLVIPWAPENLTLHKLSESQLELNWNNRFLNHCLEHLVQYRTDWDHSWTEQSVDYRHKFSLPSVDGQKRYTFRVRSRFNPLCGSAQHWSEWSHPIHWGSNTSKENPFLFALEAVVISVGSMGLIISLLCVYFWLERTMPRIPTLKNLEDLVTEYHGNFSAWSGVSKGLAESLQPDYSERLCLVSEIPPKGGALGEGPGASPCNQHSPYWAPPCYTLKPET

B1: myc tagged NIK (pcS3MTNIK) (protein)
chain: MAVMEMACPGAPGSAVGQQKELPKAKEKTPPLGKKQSSVYKLEAVEKSPVFCGKWEILNDVITKGTAKEGSEAGPAAISIIAQAECENSQEFSPTFSERIFIAGSKQYSQSESLDQIPNNVAHATEGKMARVCWKGKRRSKARKKRKKKSSKSLAHAGVALAKPLPRTPEQESCTIPVQEDESPLGAPYVRNTPQFTKPLKEPGLGQLCFKQLGEGLRPALPRSELHKLISPLQCLNHVWKLHHPQDGGPLPLPTHPFPYSRLPHPFPFHPLQPWKPHPLESFLGKLACVDSQKPLPDPHLSKLACVDSPKPLPGPHLEPSCLSRGAHEKFSVEEYLVHALQGSVSSGQAHSLTSLAKTWAARGSRSREPSPKTEDNEGVLLTEKLKPVDYEYREEVHWATHQLRLGRGSFGEVHRMEDKQTGFQCAVKKVRLEVFRAEELMACAGLTSPRIVPLYGAVREGPWVNIFMELLEGGSLGQLVKEQGCLPEDRALYYLGQALEGLEYLHSRRILHGDVKADNVLLSSDGSHAALCDFGHAVCLQPDGLGKSLLTGDYIPGTETHMAPEVVLGRSCDAKVDVWSSCCMMLHMLNGCHPWTQFFRGPLCLKIASEPPPVREIPPSCAPLTAQAIQEGLRKEPIHRVSAAELGGKVNRALQQVGGLKSPWRGEYKEPRHPPPNQANYHQTLHAQPRELSPRAPGPRPAEETTGRAPKLQPPLPPEPPEPNKSPPLTLSKEESGMWEPLPLSSLEPAPARNPSSPERKATVPEQELQQLEIELFLNSLSQPFSLEEQEQILSCLSIDSLSLSDDSEKNPSKASQSSRDTLSSGVHSWSSQAEARSSSWNMVLARGRPTDTPSYFNGVKVQIQSLNGEHLHIREFHRVKVGDIATGISSQIPAAAFSLVTKDGQPVRYDMEVPDSGIDLQCTLAPDGSFAWSWRVKHGQLENRP
B1 was tested. Which “in vitro kinase assay of anti NIK immunoprecipitates: NIK self- and IKK1-phosphorylation” value did it give?
Its value is “A three fold increase in phosphorylation of NIK self- and IKK1-phosphorylation was observed in the presence of cγc”.
